Consider two substances from patent US20050148763A1, “Peg-binding pth or peg-binding pth derivative” (Chugai Seiyaku Kabushiki Kaisha, priority 2002, published 2005).

Series [1] in a line: Pharmacokinetics and bioavailability in rats by subcutaneous route. The note with it: for BA: subcutaneous route. It is filed as in vivo. How it is done:
(§1) Each sample was adjusted to 80 μg/mL by dilution with 25 mmol/L citrate-phosphate buffer (pH 5.0) containing 100 mmol/L NaCl and 0.05 vol % Tween 20 to give a solution for administration. Male SD rats at 6 weeks of age (CLEA Japan, Inc.) were provided for this experiment. Intravenous injection was performed on rats having polyethylene tubes (SP-31, Natsume Seisakusho Co., Ltd.) inserted into the femoral artery and vein. The solutions thus prepared were each administered at a dose of 1 mL/kg through a polyethylene tube inserted into the femoral vein, and blood was collected through a polyethylene tube inserted into the femoral artery before administration and at 5, 15, 30 and 45 minutes as well as 1, 2, 4, 6, 8 and 24 hours after administration. Subcutaneous administration was performed on rats having polyethylene tubes inserted into the femoral artery. The solutions prepared above were each subcutaneously administered at a dose of 1 mL/kg to the dorsal neck region of the rats, and blood was collected in the same manner as used for intravenous injection. These blood samples were centrifuged to collect plasma and stored at −40° C. until assayed for PTH(1-34) or PEG-PTH(1-34) levels.
(§2) The level of PTH(1-34) or PEG-PTH(1-34) was determined by RIA analysis using a Rat PTH IRMA Kit (Immutopics). A Cobra Quantum Model 5005 gamma counter (Packard) was used to measure radioactivity for each sample. The plasma level of PTH(1-34) or PEG-PTH(1-34) was calculated from a calibration curve prepared using PTH(1-34) or PEG-PTH(1-34). The Winnonlin program Ver. 2.1 (Scientific Consulting Inc.) was used to analyze the time course of changes in the calculated plasma PTH(1-34) or PEG-PTH(1-34) levels (FIG. 3: by intravenous route; FIG. 4: by subcutaneous route) to calculate the following as pharmacokinetic parameters: time required to reach the maximum plasma level (Tmax); maximum plasma level (Cmax); area under the curve of plasma levels (AUC); plasma half-life (t1/2); total body clearance (Cltotal); mean residence time in the body (MRT); and bioavailability (BA). […]

Series [2] can be described thus: Hypercalcemic effect of PEG-PTH(1-34) in normal male BDF1 mice. It is filed as in vivo. How it is done:
2 k and 5 k PEG-PTH(1-34) were also adjusted similarly to 30 nmol/mL (calculated as PTH) and allowed to stand on ice immediately before administration.
Male BDF1 mice at 5 weeks of age (Charles River Japan, Inc.) were measured for their body weight. Immediately before drug administration, blood was collected by orbital puncture into heparinized capillary tubes and measured for baseline levels of blood ionized calcium and pH using a Ca^2+/pH analyzer (Model 348/Bayer Medical Ltd.) to give the corrected level of ionized calcium at pH 7.4 for each sample. The mice received subcutaneous administration of each drug at a dose of 5 mL/kg. […] At 1, 3 and 6 hours after administration, blood was collected by orbital puncture to monitor the time course of corrected blood ionized calcium levels.

The nature of series [3]: Pharmacokinetics in rats by intravenous route. Format: in vivo. Conditions: 80 μg/mL at 1 mL/kg. The method, then:
as §1, §2

For series [4], the target named is T1, human PTH1 receptors (Homo sapiens, UniProt Q03431).
T1 construct: expressed in transfected cells; host or cells: HKRK-B7 and HKRK-B64 cells (derived from pig kidney LLC-PK1 cells)
T1 sequence (Q03431 27-593): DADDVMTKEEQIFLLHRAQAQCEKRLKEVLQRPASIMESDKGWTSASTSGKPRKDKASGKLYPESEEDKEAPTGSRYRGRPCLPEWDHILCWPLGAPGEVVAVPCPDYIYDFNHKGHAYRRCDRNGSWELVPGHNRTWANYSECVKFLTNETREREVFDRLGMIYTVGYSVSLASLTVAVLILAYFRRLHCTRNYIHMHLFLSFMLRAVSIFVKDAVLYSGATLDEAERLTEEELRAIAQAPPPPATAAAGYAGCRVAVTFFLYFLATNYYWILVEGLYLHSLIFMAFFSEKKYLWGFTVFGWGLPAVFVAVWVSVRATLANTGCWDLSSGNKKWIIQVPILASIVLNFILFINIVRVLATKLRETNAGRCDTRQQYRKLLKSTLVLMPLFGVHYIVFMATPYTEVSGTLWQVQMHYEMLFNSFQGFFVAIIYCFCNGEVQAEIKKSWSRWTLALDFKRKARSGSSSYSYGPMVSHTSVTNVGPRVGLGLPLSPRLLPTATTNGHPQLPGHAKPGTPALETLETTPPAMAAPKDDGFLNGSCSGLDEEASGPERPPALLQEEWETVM
Put plainly: in vitro ability to produce cAMP, HKRK-B7 cells. It is filed as cell-based. Conditions: Table 2(1), n=2-3. How it is done:
(§3) Each PEG-PTH sample was assayed for its ability to produce cAMP (indicative of the increasing effect of PTH on bone mass) as follows. […] These cells were seeded in 96-well plates at 1×10^5 cells/well and incubated overnight. […] After removing the reaction solution, the plates were placed on powdered dry ice to freeze the cells and then removed from the dry ice. The cells were thawed with 50 μL of 50 mM HCl and frozen again on dry ice. The level of intracellular cAMP was determined with a commercially available EIA kit (Biotrak cAMP EIA system, Amersham).

Series [5] addresses T1, human PTH1 receptors. Put plainly: in vitro ability to produce cAMP, HKRK-B64 cells. Format: cell-based. Conditions: Table 2(2), n=2-3. The method, then: Each PEG-PTH sample was assayed for its ability to produce cAMP (indicative of the increasing effect of PTH on bone mass) as follows. HKRK-B7 and HKRK-B64 cells, genetically modified from pig kidney-derived LLC-PK1 cells to overexpress human PTH1 receptors at levels of about 1×10^6 and 9×10^4 receptors per cell, respectively, as well as EW29 cells expressing about 1.9×10^5 rat PTH1 receptors per cell (Takasu et al., J. Bone. Miner. Res. 14: 11-20, 1999) were grown in DMEM supplemented with 10% FBS, 1% penicillin and 1% streptomycin. These cells were seeded in 96-well plates at 1×10^5 cells/well and incubated overnight. On the following day, the cells were washed once with 200 μL binding buffer (50 mM Tris-HCl/100 mM NaCl/5 mM KCl/2 mM CaCl2/5% inactivated horse serum/0.5% inactivated bovine serum, pH 7.7), followed by addition of 100 μL cAMP assay buffer (DMEM/2 mM 3-isobutyl-1-methylxanthine/1 mg/mL bovine serum albumin/35 mM HEPES-NaOH, pH 7.4) on ice. […] After removing the reaction solution, the plates were placed on powdered dry ice to freeze the cells and then removed from the dry ice. The cells were thawed with 50 μL of 50 mM HCl and frozen again on dry ice. The level of intracellular cAMP was determined with a commercially available EIA kit (Biotrak cAMP EIA system, Amersham).

Series [6] in a line: Hypercalcemic effect of PEG-[Cys^35]-PTH(1-35) in normal female DDY mice. Format: in vivo. The note with it: for Blood iCa level Hour 1: 1 hour after administration; for Blood iCa level Hour 3: 3 hours; for Blood iCa level Hour 6: 6 hours; for Blood iCa level Hour 9: 9 hours; for Blood iCa level Hour 24: 24 hours; for Blood iCa level Hour 0: before administration; for hypercalcemic effect (in words): female DDY mice, sc, 10-150 nmol/kg. How it is done:
2 k, 5 k and 20 k PEG-[Cys^35]-PTH(1-35) were also adjusted similarly to 30, 10 and 2 nmol/mL (calculated as PTH) and allowed to stand on ice immediately before administration.
Using female DDY mice at 6 weeks of age (Japan SLC, Inc.), the corrected level of ionized calcium at pH 7.4 was determined for each sample in the same manner as shown in (1) above. The mice received subcutaneous administration of each drug at a dose of 5 mL/kg. The buffer was administered to a group of 5 mice. […] 150 nmol/kg 2 k, 5 k and 20 k PEG-[Cys^35]-PTH(1-35) were administered to groups of 4 mice each. 50 and 10 nmol/kg 2 k, 5 k and 20 k PEG-[Cys^35]-PTH(1-35) were administered to groups of 5 mice each. At 1, 3, 6, 9 and 24 hours after administration, blood was collected by orbital puncture to monitor the time course of corrected blood ionized calcium levels.

The target in the next series is T2, rat PTH1 receptors (Rattus norvegicus, UniProt P25961).
T2 construct: expressed in transfected cells; host or cells: EW29 cells
T2 sequence (P25961 27-591): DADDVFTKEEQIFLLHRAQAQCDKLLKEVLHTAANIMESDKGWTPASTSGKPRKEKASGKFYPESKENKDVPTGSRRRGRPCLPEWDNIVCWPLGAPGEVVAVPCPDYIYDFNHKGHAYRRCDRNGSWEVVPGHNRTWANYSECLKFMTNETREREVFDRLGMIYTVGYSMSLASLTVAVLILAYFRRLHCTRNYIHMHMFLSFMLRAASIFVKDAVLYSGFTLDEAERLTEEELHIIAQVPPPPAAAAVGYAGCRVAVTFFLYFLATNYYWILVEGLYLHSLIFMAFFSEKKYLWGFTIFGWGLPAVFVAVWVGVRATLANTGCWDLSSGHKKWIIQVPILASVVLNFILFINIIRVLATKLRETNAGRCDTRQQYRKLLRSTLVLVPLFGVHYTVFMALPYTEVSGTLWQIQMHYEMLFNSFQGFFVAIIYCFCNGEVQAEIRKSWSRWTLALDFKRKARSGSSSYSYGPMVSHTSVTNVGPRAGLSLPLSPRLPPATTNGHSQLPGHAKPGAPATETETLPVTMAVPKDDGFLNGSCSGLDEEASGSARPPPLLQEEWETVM
In words: in vitro ability to produce cAMP, EW29 cells. Conditions: Table 2(3), n=2-3. Format: cell-based. How it is done: as §3

[7] abbreviates: subcutaneous, 80 μg/mL at 1 mL/kg.

As usually defined, the AUC is the area under the concentration-time curve, a measure of exposure. Low readings indicate less exposure, high ones more exposure. A word on the MRT: it is the average time that molecules of a dose stay in the body. What is called Tmax is the time from dosing to the highest level. Usually EC50 stands for the midpoint of the concentration-response curve. The low end stands for greater potency, the high end for weaker potency.

Substance “2k PEG-hPTH(1-34): hPTH(1-34) reacted with mPEG 2 k-SPA, fraction having one 2 kDa PEG molecule per PTH molecule” showed a BA in series [1] (listed as 2 k PEG-PTH (1-34)) of 56.1%. Further, the BA result in series [1] (listed as 2 k PEG-PTH(1-34)) was “about 56.1%”. For the same substance, in series [1] (setting [7]), the AUC was found to be 53.78 ng·h/mL, the MRT was found to be 1.684 h, the Tmax turned out to be 0.300 h and the “t ½” value came out at 1.231 h. Besides, in series [2] (150 nmol/kg sc), the “increase in blood ionized calcium levels (in words)” value was “almost the same increase in ionized calcium levels as observed with 500 nmol/kg hPTH(1-34)” and the “increased blood ionized calcium level maintained until” value is 3 h. Also, the “time of maximum increase in blood ionized calcium levels after administration” value in series [2] (sc, hPTH(1-34) 50-500 nmol/kg, PEG-PTHs 150 nmol/kg) is on record as “one”. Further, in series [3], the AUC was determined as 95.781 ng·h/mL, the Cltotal was 14.03 mL/min/kg, the MRT was 0.465 h and the t ½ was determined as 1.128 h.
As for “20 k PEG-[Cys^35]-hPTH(1-35): [Cys^35]-hPTH(1-35) conjugated with 20 kDa PEG (SVSEIQLMHNLGKHLNSMERVEWLRKKLQDVHNFC; Parathyroid hormone 20 kDa PEG at Cys35; UniProt P01270 32-66, looked up, variant V35C)”, the entries for the “Maximum cAMP response” value with human PTH1 receptors [4], with human PTH1 receptors [5] and in the series with rat PTH1 receptors were 131.1 ± 7.5 pmol/well, 79.6 ± 14.6 pmol/well and 59.4 ± 12.9 pmol/well, respectively. Besides, the EC50 worked out at 2.7 nM with human PTH1 receptors [4] (cAMP production), 8 nM with human PTH1 receptors [5] (cAMP production) and 9.1 nM with rat PTH1 receptors (cAMP production). Besides, the results for the “Blood iCa level Hour 1” value in series [6] (10 nmol/kg sc), in series [6] (50 nmol/kg sc) and in series [6] (150 nmol/kg sc) were 1.39 ± 0.03 mM, 1.44 ± 0.03 mM and 1.42 ± 0.02 mM, respectively. The entries for the “Blood iCa level Hour 3” value in series [6] (10 nmol/kg sc), in series [6] (50 nmol/kg sc) and in series [6] (150 nmol/kg sc) were 1.51 ± 0.01 mM, 1.53 ± 0.02 mM and 1.54 ± 0.02 mM, respectively. The entries for the “Blood iCa level Hour 6” value in series [6] (10 nmol/kg sc), in series [6] (50 nmol/kg sc) and in series [6] (150 nmol/kg sc) were 1.48 ± 0.05 mM, 1.51 ± 0.03 mM and 1.55 ± 0.03 mM, respectively. The “Blood iCa level Hour 9” value is 1.43 ± 0.05 mM in series [6] (10 nmol/kg sc), 1.44 ± 0.06 mM in series [6] (50 nmol/kg sc) and 1.43 ± 0.06 mM in series [6] (150 nmol/kg sc). Further, the figures for the “Blood iCa level Hour 24” value in series [6] (10 nmol/kg sc), in series [6] (50 nmol/kg sc) and in series [6] (150 nmol/kg sc) were 1.78 ± 0.09 mM, 2.44 ± 0.12 mM and 2.71 ± 0.19 mM, respectively. In addition, the “Blood iCa level Hour 0” value in series [6] (10 nmol/kg sc) is on record as 1.27 ± 0.04 mM; in series [6] (50 nmol/kg sc) it was 1.30 ± 0.04 mM; in series [6] (150 nmol/kg sc), 1.30 ± 0.02 mM. The “hypercalcemic effect (in words)” value in series [6] (listed as 20 k PEG-(Cys^35]-PTH(1-35)) is listed as “very high blood ionized calcium levels at all tested doses”; in series [6] (listed as 20 k PEG-[Cys^35]-PTH (1-35)), “maintained a significantly higher level than that of the buffer group even at 9 hours after administration”.
